Assay results published in the supplement of paper PMC9876800.

Tested on: peptide library, one residue held at a place counted from the S/T acceptor
Assay: relative phosphorylation of the sub-library (ratio to the mean residue at this position); human; higher = residue favoured
How it was run: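 Human or orthologue kinase constructs, purified and recombinant, were incubated under kinase-specific conditions in 384-well plates with biotinylated degenerate peptide sub-libraries. Each sub-library fixed one residue at one position around a central Ser/Thr. Incubations lasted 90 min with peptides at 50 μM and 50 μM ATP spiked with γ-32P-ATP, after which spots on streptavidin membranes were phosphorimaged and quantified by densitometry. Relative sub-library phosphorylation is a ratio to the mean residue at that position.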

Chain of CAMK2D, construct: Full length (Q13557 whole entry, looked up): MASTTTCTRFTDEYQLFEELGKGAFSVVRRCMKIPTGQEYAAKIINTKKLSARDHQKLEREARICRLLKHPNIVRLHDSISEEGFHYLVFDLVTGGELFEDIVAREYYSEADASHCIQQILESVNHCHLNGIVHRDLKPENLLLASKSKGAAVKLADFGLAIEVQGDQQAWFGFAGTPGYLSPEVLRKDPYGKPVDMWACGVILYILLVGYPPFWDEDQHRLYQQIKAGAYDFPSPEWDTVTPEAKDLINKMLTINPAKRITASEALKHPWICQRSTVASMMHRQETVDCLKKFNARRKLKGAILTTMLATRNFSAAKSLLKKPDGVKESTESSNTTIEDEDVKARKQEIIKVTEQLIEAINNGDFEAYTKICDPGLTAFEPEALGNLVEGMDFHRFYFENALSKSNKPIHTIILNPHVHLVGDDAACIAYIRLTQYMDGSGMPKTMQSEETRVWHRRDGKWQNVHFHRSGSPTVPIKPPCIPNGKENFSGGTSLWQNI
Chain of CAMK1, construct: Full length (Q14012 whole entry, looked up): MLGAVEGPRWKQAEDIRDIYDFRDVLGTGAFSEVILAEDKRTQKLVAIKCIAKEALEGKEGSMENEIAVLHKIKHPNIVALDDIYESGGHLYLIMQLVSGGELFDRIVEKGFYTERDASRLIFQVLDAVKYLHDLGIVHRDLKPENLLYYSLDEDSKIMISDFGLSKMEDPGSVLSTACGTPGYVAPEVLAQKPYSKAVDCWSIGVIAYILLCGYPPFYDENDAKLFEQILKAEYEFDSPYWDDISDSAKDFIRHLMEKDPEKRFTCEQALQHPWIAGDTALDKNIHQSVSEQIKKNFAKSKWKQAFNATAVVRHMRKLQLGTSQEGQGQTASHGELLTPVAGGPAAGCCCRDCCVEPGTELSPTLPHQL
Chain of BRSK2, construct: Full length (Q8IWQ3 whole entry, looked up): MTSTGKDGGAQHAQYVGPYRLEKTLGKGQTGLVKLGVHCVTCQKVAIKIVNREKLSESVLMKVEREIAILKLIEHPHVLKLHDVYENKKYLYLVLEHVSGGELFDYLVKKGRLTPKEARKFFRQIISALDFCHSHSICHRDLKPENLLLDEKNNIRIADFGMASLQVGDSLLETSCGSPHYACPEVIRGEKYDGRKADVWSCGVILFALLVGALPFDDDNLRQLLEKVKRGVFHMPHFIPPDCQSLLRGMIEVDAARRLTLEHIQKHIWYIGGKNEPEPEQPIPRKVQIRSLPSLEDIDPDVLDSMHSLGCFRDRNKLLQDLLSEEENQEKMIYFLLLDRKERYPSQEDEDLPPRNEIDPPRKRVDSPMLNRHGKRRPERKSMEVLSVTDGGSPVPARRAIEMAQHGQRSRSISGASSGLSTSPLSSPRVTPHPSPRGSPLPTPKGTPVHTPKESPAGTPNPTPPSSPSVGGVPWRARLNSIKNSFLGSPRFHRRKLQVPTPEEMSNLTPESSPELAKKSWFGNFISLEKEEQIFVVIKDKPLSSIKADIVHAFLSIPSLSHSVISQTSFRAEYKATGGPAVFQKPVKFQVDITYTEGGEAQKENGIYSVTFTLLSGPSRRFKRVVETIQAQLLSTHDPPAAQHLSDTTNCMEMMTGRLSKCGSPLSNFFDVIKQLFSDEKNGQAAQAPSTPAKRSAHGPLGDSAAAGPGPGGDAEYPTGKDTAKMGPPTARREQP

BRSK2, construct: Full length (from UniProt Q8IWQ3)
relative phosphorylation
Conditions | at +1 | at +2 | at +3 | at +4 | at -1 | at -2 | at -3 | at -4 | at -5
A fixed | 0.653 | 0.569 | 0.726 | 0.598 | 1.07 | 1.91 | 0.829 | 1.14 | 1.01
D fixed | 0.341 | 0.505 | 1.34 | 0.41 | 0.539 | 0.816 | 0.264 | 0.367 | 0.357
E fixed | 0.396 | 0.471 | 0.574 | 0.299 | 0.433 | 0.659 | 0.257 | 0.435 | 0.355
F fixed | 2.02 | 1.69 | 1.95 | 1.3 | 0.867 | 1.19 | 0.728 | 0.686 | 1.2
G fixed | 0.53 | 0.464 | 0.85 | 0.562 | 1.3 | 1.35 | 0.703 | 1.16 | 0.964
H fixed | 0.802 | 1.49 | 1.25 | 0.718 | 1.18 | 1.05 | 1.31 | 1.3 | 0.842
I fixed | 1.03 | 0.679 | 0.518 | 3.23 | 0.674 | 0.591 | 0.389 | 0.522 | 1.08
K fixed | 0.624 | 0.337 | 0.775 | 0.727 | 1.53 | 1.04 | 2.71 | 2.04 | 1.35
L fixed | 1.17 | 0.739 | 0.609 | 3.06 | 0.956 | 0.564 | 0.427 | 0.58 | 1.27
M fixed | 3.01 | 0.951 | 0.675 | 1.47 | 1.14 | 0.664 | 0.589 | 0.881 | 1.33
N fixed | 0.925 | 1.03 | 2.68 | 0.671 | 1.02 | 0.843 | 0.681 | 0.752 | 0.599
P fixed | 0.203 | 0.489 | 0.403 | 0.654 | 1.55 | 0.833 | 0.687 | 1.58 | 0.954
Q fixed | 1.19 | 1.01 | 1.07 | 0.661 | 1.12 | 0.701 | 0.861 | 0.913 | 0.817
R fixed | 1.07 | 0.416 | 0.916 | 0.599 | 1.2 | 1.35 | 4.56 | 2.14 | 1.71
V fixed | 0.914 | 0.567 | 0.499 | 0.876 | 0.781 | 0.978 | 0.405 | 0.678 | 0.801
W fixed | 0.924 | 1.98 | 1.09 | 0.607 | 0.642 | 1.34 | 0.886 | 0.976 | 1.12
Y fixed | 1.2 | 3.62 | 1.08 | 0.559 | 1.01 | 1.13 | 0.711 | 0.844 | 1.24
pThr fixed | 0.909 | 0.54 | 0.378 | 0.452 | 0.332 | 0.451 | 0.401 | 0.624 | 0.6
pTyr fixed | 0.419 | 0.504 | 0.571 | 0.287 | 0.899 | 0.366 | 0.376 | 0.533 | 0.594

CAMK1, construct: Full length (from UniProt Q14012)
relative phosphorylation
Conditions | at +1 | at +2 | at +3 | at +4 | at -1 | at -2 | at -3 | at -4 | at -5
A fixed | 0.669 | 0.817 | 0.709 | 0.598 | 0.804 | 1.02 | 0.635 | 0.826 | 0.346
D fixed | 0.448 | 0.609 | 1.01 | 0.758 | 0.925 | 0.25 | 0.157 | 0.285 | 0.205
E fixed | 0.497 | 0.508 | 0.699 | 0.628 | 0.483 | 0.322 | 0.178 | 0.542 | 0.189
F fixed | 2.41 | 1.16 | 1.44 | 1.44 | 0.637 | 0.398 | 0.201 | 0.833 | 1.56
G fixed | 0.623 | 0.554 | 0.911 | 0.897 | 0.773 | 0.607 | 0.218 | 0.614 | 0.402
H fixed | 0.834 | 1.26 | 1.23 | 0.911 | 1.17 | 0.757 | 0.603 | 0.942 | 0.527
I fixed | 0.715 | 1.06 | 0.751 | 1.42 | 0.49 | 0.413 | 0.165 | 1.03 | 1.49
K fixed | 1.35 | 1.13 | 0.881 | 0.821 | 1.87 | 2.03 | 2.38 | 2.62 | 0.663
L fixed | 0.767 | 1.16 | 0.962 | 1.82 | 0.965 | 0.54 | 0.188 | 1.12 | 2.97
M fixed | 1.21 | 0.986 | 0.938 | 1.37 | 1.01 | 1.33 | 0.252 | 1.13 | 1.39
N fixed | 1.13 | 1.18 | 1.64 | 1.07 | 2.03 | 0.856 | 0.369 | 0.802 | 0.394
P fixed | 0.263 | 0.598 | 0.75 | 1.21 | 1.31 | 0.245 | 0.274 | 0.575 | 1.54
Q fixed | 1.44 | 1 | 1.14 | 1.01 | 1.23 | 2.24 | 0.784 | 1.11 | 0.976
R fixed | 1.96 | 1.42 | 0.961 | 0.679 | 1.59 | 4.18 | 9.87 | 2.11 | 1.8
V fixed | 0.758 | 0.857 | 0.663 | 0.732 | 0.504 | 0.469 | 0.177 | 1.01 | 0.676
W fixed | 0.932 | 1.36 | 1.38 | 0.911 | 0.45 | 0.842 | 0.325 | 0.633 | 0.924
Y fixed | 0.99 | 1.34 | 0.935 | 0.716 | 0.753 | 0.488 | 0.227 | 0.827 | 0.946
pThr fixed | 0.649 | 0.596 | 0.601 | 0.682 | 0.288 | 0.264 | 0.201 | 0.389 | 0.248
pTyr fixed | 0.654 | 1.94 | 0.848 | 0.605 | 0.604 | 0.361 | 0.473 | 0.445 | 0.461

CAMK2D, construct: Full length (from UniProt Q13557)
relative phosphorylation
Conditions | at +1 | at +2 | at +3 | at +4 | at -1 | at -2 | at -3 | at -4 | at -5
A fixed | 0.696 | 0.903 | 1.09 | 1.13 | 1.05 | 1.26 | 0.926 | 1.07 | 0.966
D fixed | 0.461 | 3.3 | 1.4 | 1.45 | 0.967 | 0.476 | 0.264 | 0.439 | 0.415
E fixed | 0.719 | 2.31 | 1.46 | 1.41 | 0.674 | 0.625 | 0.316 | 0.691 | 0.378
F fixed | 2.39 | 0.604 | 0.852 | 0.726 | 0.811 | 0.914 | 0.887 | 1.22 | 1.38
G fixed | 0.609 | 1.06 | 1.51 | 1.38 | 1.17 | 1.41 | 0.814 | 1.03 | 0.827
H fixed | 0.719 | 1.03 | 1.17 | 0.962 | 1.08 | 0.894 | 1.05 | 0.86 | 0.922
I fixed | 1.93 | 0.599 | 0.699 | 0.705 | 0.699 | 0.547 | 0.575 | 0.946 | 1.11
K fixed | 0.476 | 0.569 | 0.669 | 0.688 | 1.21 | 0.858 | 1.68 | 0.967 | 0.794
L fixed | 1.44 | 0.553 | 0.894 | 0.686 | 0.893 | 0.62 | 0.626 | 1.03 | 1.7
M fixed | 1.72 | 0.605 | 0.793 | 0.711 | 1.15 | 1.12 | 0.782 | 1.2 | 1.22
N fixed | 0.705 | 1.17 | 0.981 | 1.03 | 1.23 | 0.956 | 0.689 | 0.707 | 0.597
P fixed | 0.278 | 0.626 | 1.09 | 1.81 | 1.55 | 0.45 | 0.909 | 1.02 | 1.12
Q fixed | 1.17 | 0.957 | 1.03 | 1 | 1.16 | 2.51 | 0.973 | 0.875 | 0.708
R fixed | 0.5 | 0.716 | 0.61 | 0.549 | 0.882 | 1.02 | 3.93 | 1.09 | 1.03
V fixed | 1.65 | 0.676 | 0.835 | 0.787 | 0.728 | 0.655 | 0.551 | 0.926 | 0.92
W fixed | 0.636 | 0.619 | 0.977 | 1.1 | 0.7 | 1.74 | 1.19 | 1.66 | 1.68
Y fixed | 0.9 | 0.702 | 0.963 | 0.88 | 1.05 | 0.949 | 0.844 | 1.27 | 1.24
pThr fixed | 1.02 | 1.01 | 1.39 | 2.4 | 0.353 | 0.348 | 0.448 | 0.653 | 0.605
pTyr fixed | 0.872 | 3.27 | 1.12 | 1.45 | 0.933 | 0.349 | 0.424 | 0.609 | 0.606
